Values belong to the molecule of their own block, whether it stands above or below them.
How the values were obtained:
[1] = biological target: Flag-tagged Nodal precursor (mouse); test: non-reducing SDS-PAGE with immunoblot
[2] = biological target: the molecule itself; test: non-reducing SDS-PAGE with immunoblot

- stoichiometry N [1]: 2
Molecule: Flag-tagged Nodal precursor (natural protein)

B1: mature MycBMP4 (domain or fragment, mouse, UniProt P21275 293-408, looked up)
chain: SPKHHPQRSRKKNKNCRRHSLYVDFSDVGWNDWIVAPPGYQAFYCHGDCPFPLADHLNSTNHAIVQTLVNSVNSSIPKACCVPTELSAISMLYLDEYDKVVLKNYQEMVVEGCGCR
- stoichiometry N [2]: 2

From paper PMC2148113 (The Journal of Cell Biology, 1999)
